In the supplement of paper PMC7125110:
± gives the standard error. This sample holds only a part of the variants without activity.

B1: glmS ribozyme (parent)
chain: AUAAAAGCGCCAGAACUACAGAAAUGUAGUUGACGAGGAGGAGGUUUAUCGAAUUUUCGGCGGAUGCCUCCAAA

Legend:
Settings in all cases: with glucosamine-6-phosphate
glucosamine-6-phosphate [1] = variants of: B1; experiment: self-cleavage kobs at 40 uM GlcN6P; higher = faster cleavage; RNA array
Outline: (§1)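 E. coli RNA polymerase transcribed barcoded ribozyme variants in situ on sequenced MiSeq chips, which were tracked via a hybridised Cy3 probe at 37 °C. Tiles were imaged over ~14 h after glucosamine-6-phosphate (40 μM to 10 mM) in HEPES/KCl/Mg(OAc)2 buffer was flowed in. Normalised per-tile medians were fit to one- or two-exponential decays for kobs, and kcat and KM came from weighted Michaelis–Menten fits.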

glucosamine-6-phosphate [2] = variants of: B1; experiment: self-cleavage kobs at 10000 uM GlcN6P; higher = faster cleavage; RNA array
Outline: as §1

glucosamine-6-phosphate [3] = variants of: B1; experiment: self-cleavage kobs at 160 uM GlcN6P; higher = faster cleavage; RNA array
Outline: as §1

glucosamine-6-phosphate [4] = variants of: B1; experiment: self-cleavage kobs at 640 uM GlcN6P; higher = faster cleavage; RNA array
Outline: as §1

glucosamine-6-phosphate [5] = variants of: B1; experiment: self-cleavage kobs at 2500 uM GlcN6P; higher = faster cleavage; RNA array
Outline: as §1

Row | Variant | self-cleavage kobs at 40 uM GlcN6P (glucosamine-6-phosphate [1]) [s⁻¹] | self-cleavage kobs at 10000 uM GlcN6P (glucosamine-6-phosphate [2]) [s⁻¹] | self-cleavage kobs at 160 uM GlcN6P (glucosamine-6-phosphate [3]) [s⁻¹] | self-cleavage kobs at 640 uM GlcN6P (glucosamine-6-phosphate [4]) [s⁻¹] | self-cleavage kobs at 2500 uM GlcN6P (glucosamine-6-phosphate [5]) [s⁻¹]
1 | C11A A12C G38U U69A | 0.000405 ± 0.00012 | 4.3e-05 ± 2e-05 |  |  | 
2 | C11A A48U | < 1e-05 |  | < 1e-05 | < 1e-05 | < 1e-05
3 | G41U C68U C71A | < 1e-05 |  |  |  | 
4 | U30C G37C C58A G60U | < 1e-05 | < 1e-05 |  |  | 
5 | A15G G37A A39C C61U U69G | < 1e-05 |  |  |  | 
6 | C11G U69G C71U | 4.35e-05 ± 2.1e-05 |  |  |  | 
7 | A6G G40U A52G U65G | < 1e-05 | < 1e-05 |  |  | 
8 | G35A G51A | < 1e-05 | < 1e-05 |  |  | 
9 | A6U U46G C58A | < 1e-05 |  |  |  | 
10 | G37U A39U U45G G51A G59A | < 1e-05 |  |  |  | 
11 | G35A U47A G51U | < 1e-05 |  |  |  | 
12 | A6G A39G C68A C70G | < 1e-05 |  |  |  | 
13 | C8G A15U G62C | < 1e-05 |  |  | < 1e-05 | 
14 | U46G C61G | < 1e-05 | < 1e-05 | < 1e-05 | < 1e-05 | 
15 | G41U G43A | < 1e-05 | < 1e-05 |  | < 1e-05 | < 1e-05
16 | A6C U46A U49A | < 1e-05 |  | < 1e-05 | < 1e-05 | < 1e-05
17 | G62A G66U | < 1e-05 | < 1e-05 |  | < 1e-05 | < 1e-05
18 | A24U | 0.002 ± 0.0003 |  |  |  | 
19 | A6U C16U G32C A42U U57G | < 1e-05 |  |  |  | 
20 | C50U U57A G60U | < 1e-05 | < 1e-05 |  |  | 
21 | A14U C50G C58G | 0.000124 ± 3.9e-05 | 0.000108 ± 2.7e-05 |  |  | 
22 | C10G G29A G37A G38U G41C C71U | < 1e-05 | < 1e-05 |  |  | 
23 | G41U G60U | < 1e-05 | < 1e-05 | < 1e-05 | < 1e-05 | 
24 | G13A G63A | < 1e-05 | < 1e-05 | < 1e-05 |  | 
25 | C34A G44A | < 1e-05 | < 1e-05 | < 1e-05 | < 1e-05 | < 1e-05
26 | C34U G59A | < 1e-05 |  |  | < 1e-05 | < 1e-05
27 | G43A G59C | < 1e-05 | < 1e-05 | < 1e-05 | < 1e-05 | 
